Ends that are not written are not given here.
B1: FITC-labeled Par6β PBM peptide (peptide)
peptide: LEEDGTIITL
modifications: also: FITC label, position not given here
notes: source: synthetic peptide (Phtdpeptides)
B2: Par3 PDZ3 G600,602 A (domain or fragment, rat)
chain: GTREFLTFEVPLNDSGSAALAVSVKGNRSKENHADLGIFVKSIINGGAASKDGRLRVNDQLIAVNGESLLGKANQEAMETLRRSMSTEGNKRGMIQLIVARRIS
notes: Par3, rat, third PDZ domain with G600A and G602A; source: E. coli BL21 (DE3) or Rosetta, purified (Ni2+-NTA, SEC)

How the values were obtained:
Par3 PDZ3 = target: T1, Par3 PDZ3 (rat, UniProt Q9Z340 582-685); assay: fluorescence polarisation; FITC-labeled peptide (~1 μM) titrated with Par3 PDZ domains, 25 °C, buffer A (50 mM Tris pH 8.0, 100 mM NaCl, 1 mM EDTA, 1 mM DTT); details: both partners purified
T1 construct: Par3, rat, third PDZ domain; Cloned into pGEX-6P-1 or a modified pET32a vector; also called rat Par3 PDZ3; source: E. coli BL21 (DE3) or Rosetta, purified (Ni2+-NTA, SEC)

[1] = target: B1; assay: as above; details: both partners purified

T1 sequence (Q9Z340 582-685): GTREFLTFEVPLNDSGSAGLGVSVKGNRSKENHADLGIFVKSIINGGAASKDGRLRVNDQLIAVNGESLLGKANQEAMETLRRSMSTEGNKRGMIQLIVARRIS

Row | Binder | Kd (Par3 PDZ3) [nM] | fold weakening against wild-type Par3 PDZ3 [1] [fold]
1 | B1 | ~1000 | –
2 | B2 | – | ~20

— PMC7211019, “Par complex cluster formation mediated by phase separation” (Nature Communications, 2020)
